± gives the standard error. Variants at the floor of the assay were thinned out.
B1: glmS ribozyme (parent)
chain: AUAAAAGCGCCAGAACUACAGAAAUGUAGUUGACGAGGAGGAGGUUUAUCGAAUUUUCGGCGGAUGCCUCCAAA

Assays:
Conditions in all cases: with glucosamine-6-phosphate
glucosamine-6-phosphate [1] = variants of: B1; test: self-cleavage kobs at 160 uM GlcN6P; higher = faster cleavage; RNA array
In short: (§1)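 On sequenced MiSeq chips, barcoded ribozyme variants were made in situ by E. coli RNA polymerase and followed at 37 °C through a hybridised Cy3 probe. Glucosamine-6-phosphate was flowed in at 40 μM to 10 mM in HEPES/KCl/Mg(OAc)2 buffer. Exponential fits to normalised per-tile medians gave kobs, and weighted Michaelis–Menten fits gave kcat and KM.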

glucosamine-6-phosphate [2] = variants of: B1; test: self-cleavage kobs at 2500 uM GlcN6P; higher = faster cleavage; RNA array
In short: as §1

glucosamine-6-phosphate [3] = variants of: B1; test: self-cleavage kobs at 640 uM GlcN6P; higher = faster cleavage; RNA array
In short: as §1

glucosamine-6-phosphate [4] = variants of: B1; test: self-cleavage kobs at 10000 uM GlcN6P; higher = faster cleavage; RNA array
In short: as §1

glucosamine-6-phosphate [5] = variants of: B1; test: self-cleavage kobs at 40 uM GlcN6P; higher = faster cleavage; RNA array
In short: as §1

Variant	self-cleavage kobs at 160 uM GlcN6P (glucosamine-6-phosphate [1]) [s⁻¹]	self-cleavage kobs at 2500 uM GlcN6P (glucosamine-6-phosphate [2]) [s⁻¹]	self-cleavage kobs at 640 uM GlcN6P (glucosamine-6-phosphate [3]) [s⁻¹]	self-cleavage kobs at 10000 uM GlcN6P (glucosamine-6-phosphate [4]) [s⁻¹]	self-cleavage kobs at 40 uM GlcN6P (glucosamine-6-phosphate [5]) [s⁻¹]
A6G C58U U65C	< 1e-05	< 1e-05			
C8G C71G	< 1e-05	< 1e-05	< 1e-05	< 1e-05	
G63U U65G	< 1e-05	< 1e-05	< 1e-05	< 1e-05	< 1e-05
C8U C61G	< 1e-05	< 1e-05	< 1e-05	< 1e-05	
G7U G9A	< 1e-05	< 1e-05	< 1e-05		
G7U A53C	< 1e-05		< 1e-05	< 1e-05	
C61G C70U				< 1e-05	< 1e-05
C8A A48C C68G	< 1e-05		< 1e-05		
C8G G59A C70G	< 1e-05				
G7C A12G A33U G51U	< 1e-05				
G7U C34G	< 1e-05		< 1e-05		
C8U A15G G29A	< 1e-05	< 1e-05	< 1e-05		
C8U G32U C50G	0.000945 ± 0.00017	0.000269 ± 8.5e-05	0.000695 ± 0.00016		
G7C G13C A48G C70A	< 1e-05	< 1e-05	< 1e-05		
G7U C16G G43U C67G	< 1e-05		< 1e-05		
C8U G32C U47A	< 1e-05	< 1e-05	< 1e-05		
A6G C50U U55C	< 1e-05	< 1e-05	< 1e-05	< 1e-05	
A6C C8U C34A	< 1e-05	< 1e-05	< 1e-05		
G7U C8G G51C	< 1e-05	< 1e-05	< 1e-05		
A6C A15U C16U	< 1e-05				
G7U C10G A33U C34U C67G C68A	6.38e-05 ± 2.3e-05		3.4e-05 ± 1.7e-05		
C8A G38U	< 1e-05	< 1e-05			
C8A A12U C67U	< 1e-05	< 1e-05	< 1e-05		
A6U G32U	< 1e-05	< 1e-05	< 1e-05		

From the supplement of paper PMC7125110
